Assay results published in the Immune Epitope Database (IEDB).

target: HLA-A*02:01; test: IEDB peptide-MHC binding, purified MHC/competitive/radioactivity; filed as Kd, often an IC50 or EC50 that approximates it; ≥ and ≤ were set here for values at or beyond the usual limits of such assays; conditions: source organism: Homo sapiens

Kd [nM] | Sequence
≥ 50000 | ALTGTEKL
≥ 50000 | ALTGTEKLI
7140 | ALTVVWLL
6250 | CLVGAPFASLC
781 | FACSAVPVYI
≥ 5000 | FLPRHRDTGI
≥ 50000 | FLPRHRDTGIL
143 | FLYGALLL
2.6 | FLYGALLLA
10 | FMIAATYNFAV
4170 | GLCFFGVAL
96 | GLLECCARCLV
1090 | HLFIAAFV
93 | IAATYNFAV
4540 | KVCGSNLLSI
1000 | LLVFACSAVPV
1610 | LVFACSAVPV
455 | LVLFACSAV

Kd [nM] | Sequence
1920 | LVSLLTFMI
1850 | QMTFHLFI
1670 | QMTFHLFIA
29 | RMYGVLPWI
357 | SLCADARMYGV
9.4 | SLLTFMIAA
909 | SLSRFSWGA
2380 | TLSKIFKL
2630 | TLVSLLTFMI
1220 | VIHAFQYVI
1280 | VLPWIAFPGKV
≥ 50000 | VVHFFKNIV
≥ 50000 | WLGHPDKFV
≥ 25000 | WLGHPDKFVGI
≥ 50000 | WLLVFACSA
1350 | WLLVFACSAV
119 | YALTVVWLL
658 | YALTVVWLLV
